Our source for the self-cleavage values is the RNAGym collection of RNA variant scans (doi:10.7554/elife.80360).

B1: Twister Ribozyme (parent)
chain: AACACUGCCAAUGCCGGUCCCAAGCCCGGAUAAAAGUGGAGGGGGCGG

Variants of B1 are the subject of the series. Nature of the series: self-cleavage, relative activity (ratio to wild type); higher = more cleavage; co-transcriptional.
Turning to C27U A40U, the self-cleavage is 0.164.

With C9A G28C, the self-cleavage was 0.636. Under U6C C46A stands 0.65; under A33C G44A, 0.832; under A1G A11G, 0.414.

Take C27G G45C: the self-cleavage turned out to be 0.0921.

In the case of C20G G48C, the self-cleavage was 0.157. The result for G24U G28A reads 0.0754; that for U6A G24U, 0.0898. As for U12C A32U, the self-cleavage stood at 0.835.

Regarding A11U G29A, the self-cleavage was determined as 1.02. Under G41A G47U stands 0.236; under A11C G42A, 0.248; under C5U C26U, 0.0759. Under G45U G48A stands 0.757; under A40G G43C, 0.135; under G29A G38A, 0.772.

As to G13U A30C, the self-cleavage turned out to be 0.665. Turning to U12A G45U, the self-cleavage worked out at 1.02. Under A4U A35G stands 0.0949; under C19G A33G, 0.175. Under C8A C25G stands 0.0894; under A1G G43C, 0.255; under C5G C14U, 0.793. Under G7C A34G stands 0.061. Consider A22C A30U, for which the self-cleavage was 1. A34U G45U: the self-cleavage came to 0.59. The result for C20G C26G reads 0.093.

As to C5U C19G, the self-cleavage was 0.107. Under G16A G38U stands 0.656; under G29A A32G, 0.84; under C19U, 1.05. The result for A22G G29U reads 0.183.

For A34U G44C, the self-cleavage is 0.766.

U6A G38A: the self-cleavage was 0.738. Under A22U A35G stands 0.583. Turning to G43U G45U, the self-cleavage was 0.358. For C3U A33U, the self-cleavage turned out to be 0.471. As to C19A A33G, the self-cleavage is 0.155.

Turning to C15A G39A, the self-cleavage amounted to 0.156. In the case of G17A G41C, the self-cleavage came to 0.164.

With C21A G42C, the self-cleavage amounted to 0.15.

Take A22U C27G: the self-cleavage came out at 0.0668.

Take U12C C21G: the self-cleavage was found to be 0.0654. Consider U12C C25G, for which the self-cleavage stood at 0.439. For the variant A2C G44U, the self-cleavage was 0.0787. The result for C27U U37C reads 0.179. Under G36A G47C stands 0.234; under A33C A35C, 0.522; under C3G G45A, 0.479. C3G G45C: the self-cleavage is 0.207. Under C8U G24A stands 0.772; under A2G U18C, 0.102.

Regarding C3G G36A, the self-cleavage came to 0.124. The result for A4G G44A reads 0.88.

Turning to U12A A32U, the self-cleavage stood at 1.1.

G43A G44U: the self-cleavage is 0.271. The result for G7A U37A reads 0.144; that for A23G G47U, 0.17; that for G13U C20A, 0.0934. U31G G41U: the self-cleavage turned out to be 0.763.

As to G13A G43C, the self-cleavage was determined as 0.167. Under C21G C27G stands 0.138; under G7A G17U, 0.103. The result for C3A A34C reads 0.0676; that for A1G G13U, 0.129. The result for U6G C14U reads 0.608. As for C26A A33U, the self-cleavage turned out to be 0.534. The result for C19A A23U reads 0.114; that for G17A G44C, 0.733.

Turning to G17A G44A, the self-cleavage was 0.671. The result for A32U G38C reads 1.12; that for C8A C27U, 0.101.

For the variant A2U G36A, the self-cleavage was 0.158. Turning to A4C U18G, the self-cleavage was determined as 0.111. The result for C3G C15U reads 0.389; that for A34C G43U, 0.14; that for C15A G42U, 0.14. The result for G16C G39C reads 0.119.

Turning to A40G G47A, the self-cleavage turned out to be 0.102. The result for U18C A22U reads 0.243; that for A2C C5G, 0.0784; that for G45A C46U, 0.848. Under C27G G48A stands 0.102; under C21A G44U, 0.108; under C9A A33G, 0.522. The result for U6C A11G reads 0.535; that for C19U A33U, 0.86. U6G G45U: the self-cleavage was 0.129. Under C15A C20G stands 0.0632; under C14U C21A, 0.108; under A2C C14A, 0.0856. Under C9A A10G stands 0.648.

In the case of G24U C27U, the self-cleavage is 0.13. The result for G7U G13A reads 0.0636; that for G7C C26A, 0.0601; that for A30C A40G, 0.189. Under C27A G29A stands 0.382; under A4C C21G, 0.0577. A4C C21U: the self-cleavage is 0.0583. Under A4G C8U stands 0.953; under G13A A33U, 1.01; under G13U G39C, 0.11. The result for C8G A22U reads 0.157; that for C8A G16U, 0.144; that for C20G G45A, 0.102. As for C8U G16U, the self-cleavage was found to be 0.459. For the variant C3A C8U, the self-cleavage was 0.122. Under A11C A22G stands 0.168; under G16A U18G, 0.0863. Under C26U A34C stands 0.133. The result for A35U G36A reads 0.593. For the variant A23C U37A, the self-cleavage turned out to be 0.088.

For the variant A11G A32U, the self-cleavage came to 0.841. As for U6C G7A, the self-cleavage was found to be 0.0638.

Consider A10G A23G, for which the self-cleavage stood at 0.879. Under A10C G45U stands 0.842. Under C9A G42C stands 0.288; under G17U G48C, 0.467.

For C5A A33G, the self-cleavage was found to be 0.472.

Turning to G28A, the self-cleavage worked out at 0.897. Under C3A A33U stands 0.203. As to C5A, the self-cleavage came out at 0.66. With A11C G36U, the self-cleavage is 0.8.

For the variant A1U A35U, the self-cleavage is 0.0666. Under A2C G28C stands 0.0792; under C20G U37A, 0.0911; under A2C G45U, 0.0774. With U6C G16C, the self-cleavage came out at 0.146.

For A23G G38A, the self-cleavage came out at 0.194. The result for A10G G17C reads 0.217; that for U6C G42C, 0.11; that for U18G G39U, 0.0734. The result for A33U A35U reads 0.926. The result for A22U G29U reads 0.66. In the case of A1C A11C, the self-cleavage turned out to be 0.145.

For A35C C46A, the self-cleavage was 0.98.

In the case of C5G U31A, the self-cleavage came out at 0.634. The result for A23C G38C reads 0.219; that for A35U G42U, 0.374; that for A23U G36C, 0.12. Under C25G C27U stands 0.136; under A32C G43U, 0.344; under U12A A30U, 1.15. Under A30U G42C stands 0.501; under C14G G44C, 0.129. Consider C8U C19G, for which the self-cleavage was 0.0901.

On to C14A A35C, for which the self-cleavage worked out at 0.863. For the variant A10G A30C, the self-cleavage came out at 0.981. Take C14A C20U: the self-cleavage was determined as 0.977. C21G C26A: the self-cleavage turned out to be 0.0789. Under G13U G44C stands 0.488. Under A23G G28C stands 0.246; under A32U G42U, 0.298; under A4G G29C, 0.571. Under G24A C27U stands 0.106; under G41A G42C, 0.094; under G17U G36A, 0.124. Consider C14U C46G, for which the self-cleavage is 1.04. The result for C14A C21U reads 0.138; that for A22G, 0.368. In the case of A4C G39C, the self-cleavage is 0.0869. Regarding C15G C25U, the self-cleavage was found to be 0.165. As for A40U G44U, the self-cleavage was 0.183. The result for U37A G39C reads 0.121; that for C26U G36C, 0.129. The result for A2U C9G reads 0.119.
